Measured values published in publication PMC10997057.

Experiments:
[1] = target: synthetic AL amyloid fibrils composed of the recombinant λ6 light chain variable domain from patient (human); assay: co-sedimentation; "pulldown" bioactivity assay; batch product at 0 h post-synthesis; 25 ug fibrils in PBS with 0.05% tween 20, 20-40 ng radiolabeled product, 1 h at RT, centrifugation 10,000 x g 3 min, gamma counting of pellet and supernatant
[2] = target: synthetic AL amyloid fibrils composed of the recombinant λ6 light chain variable domain from patient (human); assay: co-sedimentation; pulldown as for WIL fibrils except that 1.0% bovine serum albumin was added; synthetic rVλ6WIL fibrils as substrate
[3] = target: ALκ amyloid extract (patient liver) (human (endogenous in patient liver)); assay: co-sedimentation; pulldown with tissue amyloid extracts suspended in PBS at 1 mg/mL, homogenized; as for WIL fibrils except that 1.0% bovine serum albumin was added
[4] = target: ALλ amyloid extract (patient spleen) (human (endogenous in patient spleen)); assay: as above
[5] = target: ATTRv amyloid extract (patient heart), variant not named (human (endogenous in patient heart)) (UniProt P02766); assay: as above
[6] = target: murine splenic AA amyloid extract (mouse (endogenous in spleen)) (UniProt P05367); assay: as above
[7] = target: synthetic AL amyloid fibrils composed of the recombinant λ6 light chain variable domain from patient (human); assay: co-sedimentation; "pulldown" bioactivity assay as a1; batch product 6 h post-synthesis (some loss of ^99mTcO4^-1 from the peptide)
[8] = target: synthetic AL amyloid fibrils composed of the recombinant λ6 light chain variable domain from patient (human); assay: co-sedimentation; "pulldown" bioactivity assay; product labelled from lyophilized "kit" preparations stored at -80°C for 7, 98 and 128 days
[9] = target: synthetic AL amyloid fibrils composed of the recombinant λ6 light chain variable domain from patient (human); assay: co-sedimentation; "pulldown" bioactivity assay as a1; batch product stored 3 h at RT post-synthesis

Chain of ^99mTc-labeled p5+14 peptide (peptide): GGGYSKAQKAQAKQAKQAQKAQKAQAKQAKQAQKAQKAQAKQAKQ
Chain of murine splenic AA amyloid extract (mouse (endogenous in spleen)) (P05367 20-122): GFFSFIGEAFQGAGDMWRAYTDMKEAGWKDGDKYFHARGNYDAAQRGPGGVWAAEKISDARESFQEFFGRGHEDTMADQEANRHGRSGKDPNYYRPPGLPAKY

Bioactivity (bound %), 0 h post-synthesis [1]: 94%
bound (%) [2]: 91.1%
bound (%) [3]: 93.3%
bound (%) [4]: 88.1%
bound (%) [5]: 79%
bound (%) [6]: 67.8%
Bioactivity (bound %), 6 h post-synthesis [7]: 72.2%
bioactivity (% bound), kit at day 7 [8]: 76.8%
bioactivity (% bound), kit at day 98 [8]: 75.1%
bioactivity (% bound), kit at day 128 [8]: 75.2%
Bioactivity (bound %), 3 h post-synthesis [9]: 92.9%
Substance: ^99mTc-labeled p5+14 peptide
